Experimental data from PMC6175577 (2018).
Numbering of substitutions follows the chain as printed. Where two headings read alike, the source gives them in different places. Where no end group is shown, it is not given here. [ ]: non-standard residue; d: D form. pT = C[C@@H](OP(=O)(O)O)[C@H](N)C(=O)O; pS = N[C@@H](COP(=O)(O)O)C(=O)O

Columns and labels:
Test in all cases: FP
[1] = biological target: T1, TOPBP1-BRCT0,1,2 segment, wild type (recombinant, fluorescence polarisation) ( (human and chicken TOPBP1 …))
T1 chain: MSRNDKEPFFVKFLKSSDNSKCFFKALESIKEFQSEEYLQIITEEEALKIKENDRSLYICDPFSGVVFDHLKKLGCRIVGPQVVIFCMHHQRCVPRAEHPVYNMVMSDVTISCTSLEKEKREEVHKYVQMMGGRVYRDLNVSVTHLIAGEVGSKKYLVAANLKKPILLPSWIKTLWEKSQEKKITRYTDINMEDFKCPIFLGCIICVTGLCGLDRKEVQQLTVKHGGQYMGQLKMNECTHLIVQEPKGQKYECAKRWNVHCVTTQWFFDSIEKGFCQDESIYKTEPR

[2] = biological target: T2, Rad4-BRCT1,2 segment, wild type (recombinant, fluorescence polarisation) (S. pombe, UniProt P32372 1-186)
T2 chain: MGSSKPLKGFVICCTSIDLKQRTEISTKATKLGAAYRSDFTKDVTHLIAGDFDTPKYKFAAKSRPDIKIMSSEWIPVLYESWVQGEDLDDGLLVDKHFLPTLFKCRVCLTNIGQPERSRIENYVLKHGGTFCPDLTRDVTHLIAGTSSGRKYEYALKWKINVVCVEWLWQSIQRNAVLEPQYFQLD

[3] = biological target: T3, TOPBP1-BRCT0,1,2 K250E (BRCT2 phosphate-binding site mutant) ( (human and chicken TOPBP1 …))
T3 chain: T1 chain with K250E

[4] = biological target: T1, TOPBP1-BRCT0,1,2 segment, wild type …
TOPBP1-BRCT7,8 = biological target: T4, TOPBP1-BRCT7,8 ( (human and chicken TOPBP1 …))
T4 chain: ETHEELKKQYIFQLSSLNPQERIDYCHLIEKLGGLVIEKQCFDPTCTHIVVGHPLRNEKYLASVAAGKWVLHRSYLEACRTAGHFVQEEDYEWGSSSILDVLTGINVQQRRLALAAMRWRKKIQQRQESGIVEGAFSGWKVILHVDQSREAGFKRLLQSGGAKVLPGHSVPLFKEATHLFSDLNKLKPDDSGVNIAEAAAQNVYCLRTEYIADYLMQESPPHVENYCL

TOPBP1-BRCT4,5 segment = biological target: T5, TOPBP1-BRCT4,5 segment ( (human and chicken TOPBP1 …))
T5 chain: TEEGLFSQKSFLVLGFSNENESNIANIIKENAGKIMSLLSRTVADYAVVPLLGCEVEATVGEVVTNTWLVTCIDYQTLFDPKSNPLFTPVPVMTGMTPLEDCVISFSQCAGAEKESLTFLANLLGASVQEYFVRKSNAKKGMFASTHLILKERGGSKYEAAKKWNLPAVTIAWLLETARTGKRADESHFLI

S. pombe Nbs1 = biological target: T6, S. pombe Nbs1 (S. pombe, UniProt O43070 1-613)
T6 chain: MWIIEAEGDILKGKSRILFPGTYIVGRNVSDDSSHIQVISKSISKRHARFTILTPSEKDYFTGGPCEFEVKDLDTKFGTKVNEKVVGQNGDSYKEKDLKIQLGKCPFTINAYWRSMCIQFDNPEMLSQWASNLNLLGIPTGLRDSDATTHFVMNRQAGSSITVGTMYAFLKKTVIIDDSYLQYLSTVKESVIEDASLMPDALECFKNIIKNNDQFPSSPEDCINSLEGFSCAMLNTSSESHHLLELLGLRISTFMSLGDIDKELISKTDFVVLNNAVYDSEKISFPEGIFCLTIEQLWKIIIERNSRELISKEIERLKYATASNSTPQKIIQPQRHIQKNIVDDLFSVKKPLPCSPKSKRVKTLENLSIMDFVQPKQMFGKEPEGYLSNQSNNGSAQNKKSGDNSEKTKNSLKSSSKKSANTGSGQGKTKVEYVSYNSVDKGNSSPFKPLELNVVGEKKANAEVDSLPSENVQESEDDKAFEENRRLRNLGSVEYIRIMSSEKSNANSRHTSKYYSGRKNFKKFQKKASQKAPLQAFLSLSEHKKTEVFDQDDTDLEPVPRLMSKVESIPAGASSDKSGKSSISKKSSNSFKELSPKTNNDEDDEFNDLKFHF

With fluorescein-GYGLTKSVAE[pT]PVHKQIS (also: phosphothreonine at 969 (T5 or T11)) [Treslin pT969 fluorescein-labelled phosphopeptide] the Kd [1] was 940 nM.

fluorescein-GYGGVMTVPN[pT]PQKPNLQ (also: phosphothreonine at 113 (T7 or T11)) [Mdb1 pT113 fluorescein-labelled phosphopeptide] gave a Kd [2] of 1310 nM.

With fluorescein-GYGGPVLVKD[pT]PEDKYGI [RHNO1 pT202 fluorescein-labelled phosphopeptide] the Kd [3] was less than 200 nM and the Kd [4] was less than 200 nM.

With fluorescein-GYGEDESIYF[pT]PELYDPE [FANCJ pT1133 fluorescein-labelled phosphopeptide] the Kd (TOPBP1-BRCT7,8) was 140 nM.

For fluorescein-GYGDTDFVPP[pS]PEEIISA (also: phosphoserine at 304 (S11 or S17)) [BLM pS304 fluorescein-labelled phosphopeptide], the Kd (TOPBP1-BRCT4,5 segment) was 3460 nM.

fluorescein-GYGDIGVVEE[pS]PEKGDEI [Treslin pS1001 fluorescein-labelled phosphopeptide] gave a Kd [1] of 600 nM.

Work on fluorescein-GYGVEGDHS[pS]D[pT]EEEVVS [Mdb1 pS216, pT218 fluorescein-labelled phosphopeptide (SDT site)] yielded a Kd (S. pombe Nbs1) of 820 nM.
